Where two headings read alike, the source gives them in different places.
Assays:
Experiment in all cases: SEC-MALS
[1] = biological target: His6-QatC (co-expressed with QatB) (Escherichia coli NCTC9009)
[2] = biological target: His6-QatC (co-expressed with QatB) (Escherichia coli NCTC9009); remark: listed apart in the source
[3] = biological target: QatB (untagged, co-expressed with His6-QatC) (Escherichia coli NCTC9009)

Substance | stoichiometry N [1] | stoichiometry N [2] | stoichiometry N [3]
QatB (untagged, co-expressed with His6-QatC) (natural protein) | 1 | 1 | –
QatD (untagged, co-expressed) (enzyme) | – | – | 1

Source: paper doi:10.1101/2025.11.03.686418
